Experimental findings from US6849601B1 (priority 1998, dated 2005) are described below.

Positions of bridges follow the written chain, without caps; N, C: chain ends. Residues, ends and D or L forms follow the SMILES beside them.

Assay [1] has as its system bisected rat prostatic vas deferens.
For assay [2], the target named is T1, hamster α1B-adrenoceptor (hamster), P18841.
T1 chain: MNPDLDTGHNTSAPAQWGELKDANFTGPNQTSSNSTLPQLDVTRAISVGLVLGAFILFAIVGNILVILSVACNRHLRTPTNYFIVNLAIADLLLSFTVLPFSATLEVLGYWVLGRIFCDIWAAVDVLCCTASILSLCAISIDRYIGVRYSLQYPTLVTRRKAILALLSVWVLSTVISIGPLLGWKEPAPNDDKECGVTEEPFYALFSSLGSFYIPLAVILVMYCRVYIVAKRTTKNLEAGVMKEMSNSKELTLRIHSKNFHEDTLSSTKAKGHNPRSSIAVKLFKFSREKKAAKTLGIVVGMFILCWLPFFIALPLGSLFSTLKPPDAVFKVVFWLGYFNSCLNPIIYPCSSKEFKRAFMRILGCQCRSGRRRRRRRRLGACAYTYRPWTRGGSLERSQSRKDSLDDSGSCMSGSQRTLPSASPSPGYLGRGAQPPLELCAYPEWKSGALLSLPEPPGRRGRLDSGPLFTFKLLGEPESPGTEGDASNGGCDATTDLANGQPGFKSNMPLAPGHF

In assay [3] the target is T2, rat α1D-adrenoceptor (rat), P23944.
T2 chain: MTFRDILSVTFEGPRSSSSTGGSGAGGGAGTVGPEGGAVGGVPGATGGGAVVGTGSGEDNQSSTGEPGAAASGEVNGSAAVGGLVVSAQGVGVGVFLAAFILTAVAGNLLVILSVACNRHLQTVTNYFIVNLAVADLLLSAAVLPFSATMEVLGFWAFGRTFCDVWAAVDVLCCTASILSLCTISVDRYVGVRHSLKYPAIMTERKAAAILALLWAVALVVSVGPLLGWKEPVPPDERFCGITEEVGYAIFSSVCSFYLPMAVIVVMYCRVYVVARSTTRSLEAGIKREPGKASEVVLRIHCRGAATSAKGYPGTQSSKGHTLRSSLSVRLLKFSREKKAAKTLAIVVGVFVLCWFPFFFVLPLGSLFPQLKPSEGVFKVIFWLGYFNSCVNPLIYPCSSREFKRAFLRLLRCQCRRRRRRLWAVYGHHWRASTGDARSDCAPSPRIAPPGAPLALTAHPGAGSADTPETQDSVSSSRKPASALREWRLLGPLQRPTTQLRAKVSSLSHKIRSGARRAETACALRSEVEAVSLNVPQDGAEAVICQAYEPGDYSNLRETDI

The target of assay [4] is T3, rat α1A-adrenoceptor (rat), P43140.
T3 chain: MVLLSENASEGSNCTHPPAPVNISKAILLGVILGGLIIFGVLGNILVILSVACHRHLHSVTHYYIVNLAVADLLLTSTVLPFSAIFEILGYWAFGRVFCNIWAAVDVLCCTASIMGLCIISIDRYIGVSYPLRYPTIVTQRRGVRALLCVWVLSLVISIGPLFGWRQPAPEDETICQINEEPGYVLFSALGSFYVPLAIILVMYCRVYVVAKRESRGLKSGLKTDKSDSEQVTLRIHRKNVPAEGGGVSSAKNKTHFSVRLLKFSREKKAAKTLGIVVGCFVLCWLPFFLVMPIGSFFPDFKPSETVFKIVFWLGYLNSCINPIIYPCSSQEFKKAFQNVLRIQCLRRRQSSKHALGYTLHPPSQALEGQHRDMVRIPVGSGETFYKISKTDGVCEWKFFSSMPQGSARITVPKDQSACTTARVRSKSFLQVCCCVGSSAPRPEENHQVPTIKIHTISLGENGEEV

For assay [5], the target named is T1, hamster α1B-adrenoceptor (hamster), ….

`CC[C@H](C)[C@@H]1NC(=O)[C@H](CC(C)C)NC(=O)[C@@H]2CSSC[C@@H](C(N)=O)NC(=O)[C@H](Cc3ccccc3)NC(=O)[C@H](CCCCN)NC(=O)[C@H](CCCCN)NC(=O)[C@H](Cc3c[nH]cn3)NC(=O)[C@H](CC(N)=O)NC(=O)[C@H](CCCNC(=N)N)NC(=O)[C@H](CCCNC(=N)N)NC(=O)[C@H](CSSC[C@H](NC(=O)[C@H](CCCNC(=N)N)NC(=O)[C@H](Cc3c[nH]c4ccccc34)NC(=O)[C@H](CC(N)=O)NC(=O)[C@@H](N)Cc3ccccc3)C(=O)N2)NC(=O)[C@H](C)NC(=O)[C@@H]2CCCN2C1=O` [ρ-TIA, FNWRCCLIPACRRNHKKFC] (H-FNWRCCLIPACRRNHKKFC-NH2; disulfide 5-11, 6-19) registered an IC50 in assay [1] of about 300 nM.

FNWRCCLIPACRRNHKKFC (modifications not checked) [ρ-TIA] gave a Ki in assay [2] of 20 nM. Further, the -log Ki in assay [3] is 7.09; in assay [4], 7.29; in assay [5], 7.7.

A word on the IC50: it is the concentration needed to halve the response being measured. Usually Ki stands for the equilibrium dissociation constant of an inhibitor or competing ligand from its target. A higher Ki goes with weaker binding.
